The series deals with the molecule itself. The experiment in a line: SEC.

The source of these data is article PMC7112428 (International Journal of Biological Macromolecules, 2018).

B1: recombinant porcine aminopeptidase N ectodomain (residues 63-963) (domain or fragment, UniProt P15145 63-963, looked up)
chain: QSKPWNRYRLPTTLLPDSYNVTLRPYLTPNADGLYIFKGKSIVRLLCQEPTDVIIIHSKKLNYTTQGHMVVLRGVGDSQVPEIDRTELVELTEYLVVHLKGSLQPGHMYEMESEFQGELADDLAGFYRSEYMEGNVKKVLATTQMQSTDARKSFPCFDEPAMKATFNITLIHPNNLTALSNMPPKGSSTPLAEDPNWSVTEFETTPVMSTYLLAYIVSEFQSVNETAQNGVLIRIWARPNAIAEGHGMYALNVTGPILNFFANHYNTSYPLPKSDQIALPDFNAGAMENWGLVTYRENALLFDPQSSSISNKERVVTVIAHELAHQWFGNLVTLAWWNDLWLNEGFASYVEYLGADHAEPTWNLKDLIVPGDVYRVMAVDALASSHPLTTPAEEVNTPAQISEMFDSISYSKGASVIRMLSNFLTEDLFKEGLASYLHAFAYQNTTYLDLWEHLQKAVDAQTSIRLPDTVRAIMDRWTLQMGFPVITVDTKTGNISQKHFLLDSESNVTRSSAFDYLWIVPISSIKNGVMQDHYWLRDVSQAQNDLFKTASDDWVLLNVNVTGYFQVNYDEDNWRMIQHQLQTNLSVIPVINRAQVIYDSFNLATAHMVPVTLALDNTLFLNGEKEYMPWQAALSSLSYFSLMFDRSEVYGPMKKYLRKQVEPLFQHFETLTKNWTERPENLMDQYSEINAISTACSNGLPQCENLAKTLFDQWMSDPENNPIHPNLRSTIYCNAIAQGGQDQWDFAWGQLQQAQLVNEADKLRSALACSNEVWLLNRYLGYTLNPDLIRKQDATSTINSIASNVIGQPLAWDFVQSNWKKLFQDYGGGSFSFSNLIQGVTRRFSSEFELQQLEQFKKNNMDVGFGSGTRALEQALEKTKANIKWVKENKEVVLNWFIEHS
For orientation: stoichiometry N means the number of molecules, sites or subunits per partner or assembly. For the protein B1, the “stoichiometry N” value turned out to be 2.
